Measured values from patent publication US20130040894A1, “INHIBITION OR ACTIVATION OF SERINE/THREONINE ULK3 KINASE ACTIVITY” (TALLINN UNIVERSITY OF TECHNOLOGY, priority 2009, published 2013).

How the values were obtained:
FLAG-tagged GLI2, P10070 = biological target: T1, FLAG-tagged GLI2, P10070
T1 chain: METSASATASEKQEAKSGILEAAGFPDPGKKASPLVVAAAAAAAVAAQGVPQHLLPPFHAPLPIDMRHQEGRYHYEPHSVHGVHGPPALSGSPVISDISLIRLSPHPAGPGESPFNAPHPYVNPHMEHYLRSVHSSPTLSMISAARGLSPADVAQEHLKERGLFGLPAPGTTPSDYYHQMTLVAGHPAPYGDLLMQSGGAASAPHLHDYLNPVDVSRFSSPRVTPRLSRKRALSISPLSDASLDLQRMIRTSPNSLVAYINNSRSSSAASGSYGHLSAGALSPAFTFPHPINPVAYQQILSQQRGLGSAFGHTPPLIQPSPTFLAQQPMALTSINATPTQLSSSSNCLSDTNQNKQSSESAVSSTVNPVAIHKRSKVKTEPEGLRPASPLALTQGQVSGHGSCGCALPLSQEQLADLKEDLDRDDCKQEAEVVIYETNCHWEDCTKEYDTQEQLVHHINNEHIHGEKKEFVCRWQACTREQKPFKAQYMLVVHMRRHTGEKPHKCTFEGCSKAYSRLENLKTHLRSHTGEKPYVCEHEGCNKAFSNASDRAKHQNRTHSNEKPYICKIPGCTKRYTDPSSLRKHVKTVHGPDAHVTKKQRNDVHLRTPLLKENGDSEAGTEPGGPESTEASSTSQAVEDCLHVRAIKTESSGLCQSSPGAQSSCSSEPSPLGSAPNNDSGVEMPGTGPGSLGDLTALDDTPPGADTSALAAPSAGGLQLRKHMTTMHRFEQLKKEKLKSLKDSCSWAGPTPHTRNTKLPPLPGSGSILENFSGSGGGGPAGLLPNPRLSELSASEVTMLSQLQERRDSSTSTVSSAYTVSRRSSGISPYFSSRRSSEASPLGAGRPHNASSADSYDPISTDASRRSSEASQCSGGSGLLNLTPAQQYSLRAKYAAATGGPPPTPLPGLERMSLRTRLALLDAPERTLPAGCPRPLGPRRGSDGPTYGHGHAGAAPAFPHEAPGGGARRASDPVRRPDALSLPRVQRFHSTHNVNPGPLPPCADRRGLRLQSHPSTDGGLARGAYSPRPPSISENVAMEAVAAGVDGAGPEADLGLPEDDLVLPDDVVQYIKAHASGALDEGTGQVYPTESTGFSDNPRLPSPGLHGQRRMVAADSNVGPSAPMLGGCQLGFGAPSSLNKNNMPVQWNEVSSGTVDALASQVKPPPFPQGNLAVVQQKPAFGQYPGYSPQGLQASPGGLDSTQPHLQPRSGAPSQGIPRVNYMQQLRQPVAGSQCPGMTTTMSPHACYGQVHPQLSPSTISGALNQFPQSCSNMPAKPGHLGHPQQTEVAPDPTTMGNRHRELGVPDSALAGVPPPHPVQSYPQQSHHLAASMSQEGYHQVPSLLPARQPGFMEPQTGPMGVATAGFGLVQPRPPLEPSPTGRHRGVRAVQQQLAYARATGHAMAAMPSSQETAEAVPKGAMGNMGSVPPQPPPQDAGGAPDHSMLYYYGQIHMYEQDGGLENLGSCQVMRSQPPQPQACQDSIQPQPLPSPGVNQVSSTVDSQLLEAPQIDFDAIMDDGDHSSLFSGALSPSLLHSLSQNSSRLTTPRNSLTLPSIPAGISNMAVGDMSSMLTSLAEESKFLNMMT

GLI1 = experiment: In vitro kinase assay, phosphorylation of GLI1; assay type: biochemical, human
Protocol: Three overlapping human GLI1 domains corresponding to amino acids 1-433, 426-754 and 726-1106 were cloned into pET-15b vector (Novagen) between NdeI and BamHI sites. GLI1 amino acid sequence is provided as SEQ ID NO: 2). The fragments were expressed in BL21(DE3)pLys E. coli strain overnight at 21° C. using 0.1 mM IPTG and purified using Ni-CAM™ HC resin (Sigma-Aldrich) according to the manufacturer's recommendations. The proteins were eluted by PBS and verified by Western Blot (WB).
(§1) HEK293 cells were transfected with 13.5 μg of FLAG-tagged constructs expressed GLI1, GLI2, GLI3, ULK3, ULK3(K44R), ULK3(K139R) or FLAG-CMV-4 empty vector on 10 cm plates. The cells were lysed with 0.5 ml of Lysis Buffer (50 mM Tris HCl, pH 7.4, 150 mM NaCl, 1 mM EDTA, 1% Triton X-100) containing protease inhibitor cocktail (PIC) (Roche Applied Science). The lysates were centrifuged for 15 min at 4° C. and 15000 g, and the supernatants were used for immunoprecipitation (IP). IP was performed using anti-FLAG-M2 affinity gel (Sigma-Aldrich) in batch format according to the manufacture's instructions. Immune complexes were washed three times with 500 μl of Kinase Buffer (KB) (50 mM HEPES, pH 7.4, 20 mM MgCl2, 25 μM ATP) and resuspended in 12.5 μl of KB. One fifth of the immuno-complexes was subjected to WB and the rest was used for the kinase assay.
(§2) Kinase reactions were carried out in KB in a total volume of 20 μl of in the presence of 1 μCi of [γ-^32P]ATP per reaction. We used 1 μl of the immunoprecipitated ULK3, ULK3(K44R) or ULK3(K139R) mixed with 5 μl of the GLI-M2 immunocomplexes or 5 μl of bacterially expressed and purified His-GLI1 fragments. Kinase reactions were held at 30° C. for 30 min and terminated by adding of 5 μl of 4× Laemmli Sample Buffer. Proteins were resolved by SDS-PAGE. The gel was dried at 80° C. for 2 h, and autoradiography was performed using Bio-Rad Personal Molecular Imager FX.
We also assayed whether ULK3 is able to phosphorylate GLI proteins. FLAG-tagged GLI1, GLI2 and GLI3 proteins were expressed and immunoprecipitated from HEK293 cells and used as substrates for immunopurified ULK3 in the in vitro kinase assay. ULK3 was able to phosphorylate GLI proteins but with different efficiency (FIG. 3B). […] To support these findings and identify the regions in GLI1 protein that are phosphorylated by ULK3, we used bacterially expressed His-tagged fragments of GLI1 as substrate for ULK3 kinase. Two of them—GLI1(1-433) and GLI1(726-1106)—were phosphorylated by ULK3.

GLI2 = experiment: In vitro kinase assay, phosphorylation of GLI2; assay type: biochemical; details: FLAG-tagged GLI2 immunoprecipitated from HEK293 cells
Protocol: as §1
as §2, with “The gel was dried at 80° C. for 2 h, and autoradiography was performed using Bio-Rad Personal Molecular Imager FX.” left out

[1] = bacterially expressed His-tagged fragment

B1: FLAG-tagged wild-type ULK3 (human serine/threonine kinase ULK3) (protein)
chain: MAGPGWGPPRLDGFILTERLGSGTYATVYKAYAKKDTREVVAIKCVAKKSLNKASVENLLTEIEILKGIRHPHIVQLKDFQWDSDNIYLIMEFCAGGDLSRFIHTRRILPEKVARVFMQQLASALQFLHERNISHLDLKPQNILLSSLEKPHLKLADFGFAQHMSPWDEKHVLRGSPLYMAPEMVCQRQYDARVDLWSMGVILYEALFGQPPFASRSFSELEEKIRSNRVIELPLRPLLSRDCRDLLQRLLERDPSRRISFQDFFAHPWVDLEHMPSGESLGRATALVVQAVKKDQEGDSAAALSLYCKALDFFVPALHYEVDAQRKEAIKAKVGQYVSRAEELKAIVSSSNQALLRQGTSARDLLREMARDKPRLLAALEVASAAMAKEEAAGGEQDALDLYQHSLGELLLLLAAEPPGRRRELLHTEVQNLMARAEYLKEQVKMRESRWEADTLDKEGLSESVRSSCTLQ
- in vitro kinase assay, phosphorylation signal (32P autoradiography) (FLAG-tagged GLI2, P10070): The strongest phosphorylation signal was detected in the case of GLI2

B2: ULK3: human serine/threonine kinase, 472 amino acids (SEQ ID NO: 1), overexpressed from cloned cDNA or immunopurified FLAG-tagged (protein, listed as Homo sapiens)
chain: B1 chain
modifications: PEPTIDE (1)..(472) ULK3
- phosphorylation of GLI1 (GLI1; FLAG-tagged GLI1 immunoprecipitated from HEK293 cells): significantly lower intensity as compared to GLI2
- phosphorylation of GLI1(1-433) fragment (GLI1; [1]): phosphorylated
- phosphorylation of GLI1(726-1106) fragment (GLI1; [1]): phosphorylated
- phosphorylation of central part of GLI1 (amino acids 426-754) (GLI1; [1]): not phosphorylated
- phosphorylation of GLI2 (GLI2): strongest phosphorylation signal
